{
  "source": "IntAct's records for PubMed 20925060",
  "parents": {"B1": {"name": "Chaperonin GroEL 2 (Mycobacterium tuberculosis (strain ATCC 25618 / P9WPE7 (parent)", "chain": "MAKTIAYDEEARRGLERGLNALADAVKVTLGPKGRNVVLEKKWGAPTITNDGVSIAKEIELEDPYEKIGAELVKEVAKKTDDVAGDGTTTATVLAQALVREGLRNVAAGANPLGLKRGIEKAVEKVTETLLKGAKEVETKEQIAATAAISAGDQSIGDLIAEAMDKVGNEGVITVEESNTFGLQLELTEGMRFDKGYISGYFVTDPERQEAVLEDPYILLVSSKVSTVKDLLPLLEKVIGAGKPLLIIAEDVEGEALSTLVVNKIRGTFKSVAVKAPGFGDRRKAMLQDMAILTGGQVISEEVGLTLENADLSLLGKARKVVVTKDETTIVEGAGDTDAIAGRVAQIRQEIENSDSDYDREKLQERLAKLAGGVAVIKAGAATEVELKERKHRIEDAVRNAKAAVEEGIVAGGGVTLLQAAPTLDELKLEGDEATGANIVKVALEAPLKQIAFNSGLEPGVVAEKVRNLPAGHGLNAQTGVYEDLLAAGVADPVKVTRSALQNAASIAGLFLTTEAVVADKPEKEKASVPGGGDMGGMDF", "partner": "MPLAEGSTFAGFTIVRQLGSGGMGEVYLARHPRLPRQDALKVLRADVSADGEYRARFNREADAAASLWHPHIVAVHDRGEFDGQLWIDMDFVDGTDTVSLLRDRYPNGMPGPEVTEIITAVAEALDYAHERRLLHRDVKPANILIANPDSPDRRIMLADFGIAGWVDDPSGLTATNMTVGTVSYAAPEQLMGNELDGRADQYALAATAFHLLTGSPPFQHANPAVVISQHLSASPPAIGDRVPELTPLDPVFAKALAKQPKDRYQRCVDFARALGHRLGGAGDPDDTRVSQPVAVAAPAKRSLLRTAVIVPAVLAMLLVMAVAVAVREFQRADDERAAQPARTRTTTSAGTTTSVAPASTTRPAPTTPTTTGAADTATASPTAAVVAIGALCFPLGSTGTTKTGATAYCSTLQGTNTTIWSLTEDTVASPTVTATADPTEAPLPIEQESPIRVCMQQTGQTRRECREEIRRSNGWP"}, "B2": {"name": "Alpha-crystallin (Mycobacterium tuberculosis (strain ATCC 25618 / P9WMK1 (parent)", "chain": "MATTLPVQRHPRSLFPEFSELFAAFPSFAGLRPTFDTRLMRLEDEMKEGRYEVRAELPGVDPDKDVDIMVRDGQLTIKAERTEQKDFDGRSEFAYGSFVRTVSLPVGADEDDIKATYDKGILTVSVAVSEGKPTEKHIQIRSTN", "partner": "B1 partner"}},
  "data": [
    {"variants_of": "B1", "settings": "with pknf_myctu pknF", "values": [
      {"variant": "T90A", "effect of a mutation on the interaction": "decreasing interaction"},
      {"variant": "T92A", "effect of a mutation on the interaction": "decreasing interaction"},
      {"variant": "T127A", "effect of a mutation on the interaction": "decreasing interaction"}
    ]},
    {"variants_of": "B2", "settings": "with pknf_myctu pknF", "values": [
      {"variant": "S27A", "effect of a mutation on the interaction": "decreasing interaction"},
      {"variant": "S19A", "effect of a mutation on the interaction": "decreasing interaction"},
      {"variant": "T4A", "effect of a mutation on the interaction": "decreasing interaction"},
      {"variant": "T134A", "effect of a mutation on the interaction": "decreasing interaction"}
    ]}
  ]
}
